From patent WO2001068708A2 (dated 2001)
Values belong to the binder of their own block, whether it stands above or below them.

Tests used:
[1] = molecular target: T1, fibroblast activating protein alpha (FAPα), cell surface-bound (human, UniProt Q12884 1-760); experiment: binding to FAP+ cells, cell analyser, half maximal saturation
T1 construct: whole, on cells; Also used as the target of the FAP-specific immunohistological staining of tumour cryo-sections; also called FAP+ cells; FAP overexpressing fibrosarcoma cells (HT1080)
T1 sequence (looked up): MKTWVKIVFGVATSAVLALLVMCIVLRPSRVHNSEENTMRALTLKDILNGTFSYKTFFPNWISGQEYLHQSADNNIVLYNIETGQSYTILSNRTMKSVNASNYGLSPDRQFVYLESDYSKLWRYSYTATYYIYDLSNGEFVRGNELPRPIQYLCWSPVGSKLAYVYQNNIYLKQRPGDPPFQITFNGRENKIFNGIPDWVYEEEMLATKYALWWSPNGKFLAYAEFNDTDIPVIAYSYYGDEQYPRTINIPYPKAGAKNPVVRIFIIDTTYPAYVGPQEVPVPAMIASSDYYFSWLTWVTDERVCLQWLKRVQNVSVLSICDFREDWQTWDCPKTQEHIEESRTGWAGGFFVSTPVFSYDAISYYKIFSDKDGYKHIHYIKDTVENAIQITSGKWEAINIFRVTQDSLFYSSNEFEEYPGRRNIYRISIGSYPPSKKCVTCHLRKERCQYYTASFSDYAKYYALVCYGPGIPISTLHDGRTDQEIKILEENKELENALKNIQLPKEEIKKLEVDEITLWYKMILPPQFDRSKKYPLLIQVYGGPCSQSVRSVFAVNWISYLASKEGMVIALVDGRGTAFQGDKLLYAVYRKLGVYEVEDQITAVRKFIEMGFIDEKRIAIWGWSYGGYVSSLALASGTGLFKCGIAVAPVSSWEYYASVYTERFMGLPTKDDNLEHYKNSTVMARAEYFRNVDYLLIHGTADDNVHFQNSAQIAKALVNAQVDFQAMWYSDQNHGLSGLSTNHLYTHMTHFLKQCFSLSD

[2] = molecular target: T2, fibroblast activating protein alpha (FAPα), purified / immobilised antigen (human, UniProt Q12884 27-760, limits assumed); experiment: sandwich ELISA, half maximal saturation of binding (SC50), c-myc tag detection
T2 construct: Antigen coated on ELISA wells and immunotubes; The construct is not described; also called human FAP; immobilized FAP
T2 sequence (looked up): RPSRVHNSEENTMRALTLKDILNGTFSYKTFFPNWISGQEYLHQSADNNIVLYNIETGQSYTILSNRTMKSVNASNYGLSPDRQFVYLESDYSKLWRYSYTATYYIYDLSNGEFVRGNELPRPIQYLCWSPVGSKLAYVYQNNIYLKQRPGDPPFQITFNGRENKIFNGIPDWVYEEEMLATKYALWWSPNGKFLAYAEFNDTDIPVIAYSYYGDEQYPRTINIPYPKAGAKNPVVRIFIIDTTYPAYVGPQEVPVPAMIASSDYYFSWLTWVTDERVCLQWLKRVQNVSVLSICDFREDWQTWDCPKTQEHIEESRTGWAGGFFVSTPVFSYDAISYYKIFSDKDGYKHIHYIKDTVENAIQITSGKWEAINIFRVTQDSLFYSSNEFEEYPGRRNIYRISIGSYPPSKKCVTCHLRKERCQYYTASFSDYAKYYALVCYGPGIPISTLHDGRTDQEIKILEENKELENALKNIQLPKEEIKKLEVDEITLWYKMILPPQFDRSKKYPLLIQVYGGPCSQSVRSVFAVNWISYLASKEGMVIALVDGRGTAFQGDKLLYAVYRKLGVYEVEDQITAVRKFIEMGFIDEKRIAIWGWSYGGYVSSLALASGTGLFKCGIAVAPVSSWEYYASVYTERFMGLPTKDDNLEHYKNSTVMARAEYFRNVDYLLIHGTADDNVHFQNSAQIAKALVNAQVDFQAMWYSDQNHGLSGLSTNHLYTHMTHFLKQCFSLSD

[3] = molecular target: T1, fibroblast activating protein alpha …; experiment: flow cytometry on FAP overexpressing HT1080 cells, half maximal saturation (SC50)

EC50 [1]: 8 to 12 nM
B1: scFv #13 as bivalent in minibody format (other)
chain: QVQLVESGGTLVQPGGSLRLSCAASGFTFSSYAMSWIRQAPGKGLEWVSGISASGGYIDYADSVKGRVTISRDNSKNMAYLQMSSLRAEDTALYYCAKGGNYQMLLDHWGQGTLVTVSSASTKGPKLEEGEFSEARVDIQMTQSPSSLSASTGDRVTITCRASQDISSYLAWYQQAPGKAPHLLMSGATTLQTGVPSRFSGSGSGTDFTLTITSLQSEDFATYYCQQYYIYPPTFGQGTRVEIKRTVAAPSVFAA

EC50 [1]: 32 nM
B2: scFv #50 as bivalent in minibody format (other)
chain: QVQLVESGGGLVQPGGSLRLSCAASGFTFSNYWMSWVRQAPGKGLEWVANIKQDGSEKYYVDSVKGRFTISRDNAKNSLYLQMNSLRAEDTAVYYCARGSLCTDGSCPTIGPGPNWGQGTLVTVSSAPTKAPKLEEGEFSEARVDIQMTQSPSSLSASTGDRVTITCRASQDISSYLAWYQQAPGKAPHLLMSGATTLQTGVPSRFSGSGSGTDFTLTITSLQSEDFATYYCQQYYIYPPTFGQGTRVEIKRTVAAPSVFAA

EC50 [2]: 20 nM
EC50 [3]: 20 nM
B3: scFv F19 (parental murine scFv) (scFv, V domains shown)
VH: EVQLQQSGPELVKPGASVKMSCKTSRYTFTEYTIHWVRQSHGKSLEWIGGINPNNGIPNYNQKFKGRATLTVGKSSSTAYMELRSLTSEDSAVYFCARRRIAYGYDEGHAMDYWGQGTSVTVSS
VL: DIVMSQSPSSLAVSVGEKVTMSCKSSQSLLYSRNQKNYLAWFQQKPGQSPKLLIFWASTRESGVPDRFTGSGFGTDFNLTISSVQAEDLAVYDCQQYFSYPLTFGAGTKLELK
